From publication PMC8248988, “A signal capture and proofreading mechanism for the KDEL-receptor explains selectivity and dynamic range in ER retrieval” (eLife, 2021)

Tested on: PDI
Assay: ER chaperone secretion assay, PDI
Type: cell-based, human
Source text: Figure 1. ER retrieval signal abundance and affinity are not correlated. (a) Sequence logos for ER resident proteins with C-terminal KDEL retrieval signals and variants thereof calculated using frequency or protein abundance ([Itzhak et al., 2017]; [Itzhak et al., 2016]). (b) Combined cellular concentrations of ER resident proteins with canonical KDEL, RDEL, and HDEL retrieval sequences in HeLa cells and mouse brain. (c) Competition binding assays for [^3H]-TAEHDEL and unlabelled TAEKDEL, TAERDEL, and TAEHDEL to the KDEL receptor. IC50 values for the competing peptides were used to calculate the apparent KDwith the Cheng-Prusoff equation ([Cheng and Prusoff, 1973]). (d) Endogenous KDEL receptor redistribution was measured in COS-7 cells in the absence (-ligand) or presence of K/R/H/A/DDEL (mScarlet-xDEL^sec). TGN46 was used as a Golgi marker. Scale bar is 10 µm. (e) The mean difference for K/R/H/A/DDEL comparisons against the shared no ligand control are shown as Cummings estimation plots. The individual data points for the fraction of KDEL receptor fluorescence in the Golgi are plotted on the upper axes with sample sizes and p values. Figure 1—source data 1. Source data for the ligand-induced KDELR receptor retrieval assays in Figure 1e. Figure 1—figure supplement 1. Abundance of ER resident proteins and chaperones in human cells and mouse brain. (a) The mean concentration of ER resident chaperones with the indicated ER retrieval sequence variant is plotted in the bar graph ([Itzhak et al., 2017]; [Itzhak et al., 2016]). […] Endogenous ER chaperone secretion was measured by western blotting after challenge with different retrieval signals, and plotted as a bar graph showing mean ± SEM (n = 3). […] (a) Distribution of human KDELR1 and (b) KDELR2 was measured in COS-7 cells in the absence (-ligand) or presence of K/R/H/A/DDEL retrieval signals (K/R/H/A/DDEL^sec). […] The fraction of KDEL receptor localised to the Golgi was measured before (no ligand) and after challenge with different retrieval signals as indicated. […]

ADEL [pcDNA3.1 hGHss-mScarlet-H. sapiens BiP639-654K651A (ADEL^SEC), secreted mScarlet fusion with human BiP C-terminus, ADEL signal]
PDI secretion after challenge with retrieval signal (mean, HeLa S3, 24 hr, Western blot densitometry): 6.6 | PDI secretion after challenge with retrieval signal (replicate 1): 7.3 | PDI secretion after challenge with retrieval signal (replicate 2): 6.0
